Assay results as given in US20220143024A1, “METHODS OF USING IMIPRIDONES” (Board of Regents, The University of Texas System, priority 2019, published 2022).

Legend:
Experiment in all cases: BioID-MS
AFG3L2 (human) = AFG3L2 (human) (UniProt Q9Y4W6)
NUBPL (human) = NUBPL (human) (UniProt Q8TB37)
GATB (human) = GATB (human) (UniProt O75879)
MRPS25 (human) = MRPS25 (human) (UniProt P82663)
MRPL46 (human) = MRPL46 (human) (UniProt Q9H2W6)
SPRYD4 (human) = SPRYD4 (human) (UniProt Q8WW59)
COQ8A (human) = COQ8A (human) (UniProt Q8NI60)
COQ8A (human), sequence (Q8NI60 163-647 limits assumed): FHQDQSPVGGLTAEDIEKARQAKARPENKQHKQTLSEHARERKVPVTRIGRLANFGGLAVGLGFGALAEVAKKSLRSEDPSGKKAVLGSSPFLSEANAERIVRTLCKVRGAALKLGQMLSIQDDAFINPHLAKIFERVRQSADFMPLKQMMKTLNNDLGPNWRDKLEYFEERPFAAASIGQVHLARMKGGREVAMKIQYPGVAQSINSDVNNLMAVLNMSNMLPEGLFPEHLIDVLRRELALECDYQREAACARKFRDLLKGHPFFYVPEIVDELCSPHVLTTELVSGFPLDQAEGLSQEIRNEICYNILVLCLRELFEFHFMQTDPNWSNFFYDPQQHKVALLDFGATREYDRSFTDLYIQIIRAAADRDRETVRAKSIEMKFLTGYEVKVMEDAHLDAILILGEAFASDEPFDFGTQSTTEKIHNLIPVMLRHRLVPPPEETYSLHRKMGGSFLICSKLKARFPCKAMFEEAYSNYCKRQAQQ

MPST (human) = MPST (human) (UniProt P25325)
EFHA1 (human) = EFHA1 (human) (UniProt Q8IYU8)
NMNAT3 (human) = NMNAT3 (human) (UniProt Q96T66)
XPNPEP3 (human) = XPNPEP3 (human) (UniProt Q9NQH7)
PMPCA (human) = PMPCA (human) (UniProt Q10713)
SSBP1 (human) = SSBP1 (human) (UniProt Q04837)
ABCB7 (human) = ABCB7 (human) (UniProt O75027)
ABCB7 (human), sequence (O75027 23-752 limits assumed): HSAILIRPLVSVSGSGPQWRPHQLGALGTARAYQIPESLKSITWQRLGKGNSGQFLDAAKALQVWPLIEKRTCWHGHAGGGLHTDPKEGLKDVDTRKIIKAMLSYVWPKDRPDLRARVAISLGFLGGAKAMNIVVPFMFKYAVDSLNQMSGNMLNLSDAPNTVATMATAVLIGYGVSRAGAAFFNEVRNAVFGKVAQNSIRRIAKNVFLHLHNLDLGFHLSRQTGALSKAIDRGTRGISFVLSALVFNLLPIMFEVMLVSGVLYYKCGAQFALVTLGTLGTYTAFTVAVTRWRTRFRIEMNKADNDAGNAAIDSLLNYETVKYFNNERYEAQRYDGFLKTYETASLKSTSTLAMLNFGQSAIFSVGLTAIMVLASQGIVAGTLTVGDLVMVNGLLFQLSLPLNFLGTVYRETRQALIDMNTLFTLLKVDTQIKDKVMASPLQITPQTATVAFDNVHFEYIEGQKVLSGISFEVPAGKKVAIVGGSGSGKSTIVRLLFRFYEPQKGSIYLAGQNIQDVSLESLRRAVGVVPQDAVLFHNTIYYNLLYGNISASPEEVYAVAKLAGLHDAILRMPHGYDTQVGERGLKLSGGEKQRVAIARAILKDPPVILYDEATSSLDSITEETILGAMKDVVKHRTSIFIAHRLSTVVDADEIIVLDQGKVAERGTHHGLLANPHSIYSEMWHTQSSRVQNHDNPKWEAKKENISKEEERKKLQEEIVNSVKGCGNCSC

ARG2 (human) = ARG2 (human) (UniProt P78540)
RG9MTD1 (human) = RG9MTD1 (human) (UniProt Q7L0Y3)
ACAA2 (human) = ACAA2 (human) (UniProt P42765)
PDIA3 (human) = PDIA3 (human) (UniProt P30101)
MRPL45 (human) = MRPL45 (human) (UniProt Q9BRJ2)
SDHA (human) = SDHA (human) (UniProt P31040)
SDHA (human), sequence (P31040 43-664 limits assumed): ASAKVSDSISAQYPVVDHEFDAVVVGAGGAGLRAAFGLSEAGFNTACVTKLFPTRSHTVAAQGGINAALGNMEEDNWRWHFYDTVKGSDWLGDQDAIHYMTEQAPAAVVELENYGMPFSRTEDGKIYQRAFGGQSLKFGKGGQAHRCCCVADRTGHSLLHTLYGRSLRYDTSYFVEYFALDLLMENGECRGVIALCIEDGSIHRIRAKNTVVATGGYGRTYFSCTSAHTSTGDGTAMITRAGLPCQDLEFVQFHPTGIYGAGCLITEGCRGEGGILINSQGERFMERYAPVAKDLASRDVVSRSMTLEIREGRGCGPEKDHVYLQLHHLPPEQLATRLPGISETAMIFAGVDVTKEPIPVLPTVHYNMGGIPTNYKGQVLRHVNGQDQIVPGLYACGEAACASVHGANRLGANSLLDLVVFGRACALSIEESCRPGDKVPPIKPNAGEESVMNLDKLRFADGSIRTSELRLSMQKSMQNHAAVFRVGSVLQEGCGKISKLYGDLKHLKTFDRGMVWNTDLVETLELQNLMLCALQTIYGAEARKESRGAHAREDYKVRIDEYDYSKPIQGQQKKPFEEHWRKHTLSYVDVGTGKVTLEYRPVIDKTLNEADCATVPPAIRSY

GRPEL1 (human) = GRPEL1 (human) (UniProt Q9HAV7)
GRPEL1 (human), sequence (Q9HAV7 28-217 limits assumed): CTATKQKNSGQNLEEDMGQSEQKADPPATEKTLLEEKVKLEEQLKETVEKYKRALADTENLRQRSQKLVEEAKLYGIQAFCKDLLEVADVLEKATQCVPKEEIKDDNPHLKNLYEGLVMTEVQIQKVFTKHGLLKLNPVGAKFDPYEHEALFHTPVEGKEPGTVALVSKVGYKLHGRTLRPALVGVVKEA

MMAB (human) = MMAB (human) (UniProt Q96EY8)
MMAB (human), sequence (Q96EY8 33-250 limits assumed): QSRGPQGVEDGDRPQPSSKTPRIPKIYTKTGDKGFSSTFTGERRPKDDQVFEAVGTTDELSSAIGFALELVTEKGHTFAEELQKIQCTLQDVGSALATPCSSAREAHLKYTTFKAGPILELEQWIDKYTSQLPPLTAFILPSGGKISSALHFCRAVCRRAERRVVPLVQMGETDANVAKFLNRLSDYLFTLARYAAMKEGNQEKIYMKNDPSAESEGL

PTPMT1 (human) = PTPMT1 (human) (UniProt Q8WUK0)
PTPMT1 (human), sequence (Q8WUK0 28-201 limits assumed): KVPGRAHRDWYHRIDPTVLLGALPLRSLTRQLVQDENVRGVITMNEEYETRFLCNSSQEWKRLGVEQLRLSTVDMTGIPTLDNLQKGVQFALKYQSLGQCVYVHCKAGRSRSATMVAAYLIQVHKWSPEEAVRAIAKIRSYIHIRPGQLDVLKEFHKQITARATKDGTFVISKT

SUCLG1 (human) = SUCLG1 (human) (UniProt P53597)
HSDL2 (human) = HSDL2 (human) (UniProt Q6YN16)
C7orf55 (human) = C7orf55 (human) (UniProt Q96HJ9)
C7orf55 (human), sequence (Q96HJ9 whole entry): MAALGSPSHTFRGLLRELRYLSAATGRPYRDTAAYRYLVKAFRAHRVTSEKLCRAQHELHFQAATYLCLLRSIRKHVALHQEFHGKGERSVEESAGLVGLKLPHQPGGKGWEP

NDUFAF7 (human) = NDUFAF7 (human) (UniProt Q7L592)
MRPL55 (human) = MRPL55 (human) (UniProt Q7Z7F7)
PNPT1 (human) = PNPT1 (human) (UniProt Q8TCS8)
NDUFS6 (human) = NDUFS6 (human) (UniProt O75380)
NDUFS6 (human), sequence (O75380 29-124 limits assumed): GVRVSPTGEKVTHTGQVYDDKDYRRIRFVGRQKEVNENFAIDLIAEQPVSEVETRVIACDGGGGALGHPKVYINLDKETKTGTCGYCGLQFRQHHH

PITRM1 (human) = PITRM1 (human) (UniProt Q5JRX3)
RTN4IP1 (human) = RTN4IP1 (human) (UniProt Q8WWV3)
GLUD1 (human) = GLUD1 (human) (UniProt P00367)
ACADVL (human) = ACADVL (human) (UniProt P49748)
SLIRP (human) = SLIRP (human) (UniProt Q9GZT3)
NDUFAF4 (human) = NDUFAF4 (human) (UniProt Q9P032)
PYCR1 (human) = PYCR1 (human) (UniProt P32322)
K1AA0564 (human) = K1AA0564 (human) (UniProt A3KMH1)
HARS2 (human) = HARS2 (human) (UniProt P49590)
SLC27A2 (human) = SLC27A2 (human) (UniProt O14975)
MRPS11 (human) = MRPS11 (human) (UniProt P82912)
NADKD1 (human) = NADKD1 (human) (UniProt Q4G0N4)
FMC1 (human) = FMC1 (human) (UniProt Q96HJ9)
FMC1 (human), sequence (Q96HJ9 whole entry): as the sequence (Q96HJ9 whole entry) above

ALDH1L2 (human) = ALDH1L2 (human) (UniProt Q3SY69)
CHCHD3 (human) = CHCHD3 (human) (UniProt Q9NX63)
VARS2 (human) = VARS2 (human) (UniProt Q5ST30)
VARS2 (human), sequence (Q5ST30 27-1063 limits assumed): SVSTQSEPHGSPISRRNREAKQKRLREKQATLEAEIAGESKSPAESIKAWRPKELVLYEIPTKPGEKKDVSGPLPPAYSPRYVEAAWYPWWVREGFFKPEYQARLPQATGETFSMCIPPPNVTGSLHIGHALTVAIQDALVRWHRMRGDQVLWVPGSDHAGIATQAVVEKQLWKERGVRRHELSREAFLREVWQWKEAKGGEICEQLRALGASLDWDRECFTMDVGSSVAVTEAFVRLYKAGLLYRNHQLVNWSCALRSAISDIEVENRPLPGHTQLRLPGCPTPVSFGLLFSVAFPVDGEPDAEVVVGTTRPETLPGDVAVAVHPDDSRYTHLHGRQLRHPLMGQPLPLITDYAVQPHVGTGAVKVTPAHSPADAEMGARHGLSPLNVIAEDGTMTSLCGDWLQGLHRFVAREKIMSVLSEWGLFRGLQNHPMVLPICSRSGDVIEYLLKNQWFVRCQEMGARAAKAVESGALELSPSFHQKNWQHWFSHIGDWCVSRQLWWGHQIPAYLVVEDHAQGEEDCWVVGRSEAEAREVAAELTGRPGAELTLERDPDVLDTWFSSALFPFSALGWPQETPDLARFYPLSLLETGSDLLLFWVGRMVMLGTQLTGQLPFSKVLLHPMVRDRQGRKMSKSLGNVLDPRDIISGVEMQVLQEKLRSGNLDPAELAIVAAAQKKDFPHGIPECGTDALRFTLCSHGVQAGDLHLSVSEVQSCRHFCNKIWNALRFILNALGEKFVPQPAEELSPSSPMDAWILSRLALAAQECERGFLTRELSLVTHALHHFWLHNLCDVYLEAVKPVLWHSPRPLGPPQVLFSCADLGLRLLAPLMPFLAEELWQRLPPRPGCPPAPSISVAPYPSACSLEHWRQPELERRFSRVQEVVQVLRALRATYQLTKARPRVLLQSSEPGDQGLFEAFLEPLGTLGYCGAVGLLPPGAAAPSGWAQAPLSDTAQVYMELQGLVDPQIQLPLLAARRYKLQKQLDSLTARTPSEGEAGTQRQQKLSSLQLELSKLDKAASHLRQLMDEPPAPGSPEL

TBRG4 (human) = TBRG4 (human) (UniProt Q969Z0)
NDUFAF3 (human) = NDUFAF3 (human) (UniProt Q9BU61)
NDUFAF3 (human), sequence (Q9BU61 whole entry): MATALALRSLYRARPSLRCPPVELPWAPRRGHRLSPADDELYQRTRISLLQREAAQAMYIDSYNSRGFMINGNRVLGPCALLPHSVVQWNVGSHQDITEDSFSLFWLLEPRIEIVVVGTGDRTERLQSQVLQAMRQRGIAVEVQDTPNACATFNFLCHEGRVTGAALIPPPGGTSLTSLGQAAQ

ACADM (human) = ACADM (human) (UniProt P11310)
MRPS26 (human) = MRPS26 (human) (UniProt Q9BYN8)
MRPS7 (human) = MRPS7 (human) (UniProt Q9Y2R9)
COQ6 (human) = COQ6 (human) (UniProt Q9Y2Z9)
MDH2 (human) = MDH2 (human) (UniProt P40926)
PDPR (human) = PDPR (human) (UniProt Q8NCN5)
SDHAF3 (human) = SDHAF3 (human) (UniProt Q9NRP4)
NDUFA6 (human) = NDUFA6 (human) (UniProt P56556)
CLIC4 (human) = CLIC4 (human) (UniProt Q9Y696)
GRSF1 (human) = GRSF1 (human) (UniProt Q12849)

AFG3L2 (human), sequence (Q9Y4W6 67-797 limits assumed): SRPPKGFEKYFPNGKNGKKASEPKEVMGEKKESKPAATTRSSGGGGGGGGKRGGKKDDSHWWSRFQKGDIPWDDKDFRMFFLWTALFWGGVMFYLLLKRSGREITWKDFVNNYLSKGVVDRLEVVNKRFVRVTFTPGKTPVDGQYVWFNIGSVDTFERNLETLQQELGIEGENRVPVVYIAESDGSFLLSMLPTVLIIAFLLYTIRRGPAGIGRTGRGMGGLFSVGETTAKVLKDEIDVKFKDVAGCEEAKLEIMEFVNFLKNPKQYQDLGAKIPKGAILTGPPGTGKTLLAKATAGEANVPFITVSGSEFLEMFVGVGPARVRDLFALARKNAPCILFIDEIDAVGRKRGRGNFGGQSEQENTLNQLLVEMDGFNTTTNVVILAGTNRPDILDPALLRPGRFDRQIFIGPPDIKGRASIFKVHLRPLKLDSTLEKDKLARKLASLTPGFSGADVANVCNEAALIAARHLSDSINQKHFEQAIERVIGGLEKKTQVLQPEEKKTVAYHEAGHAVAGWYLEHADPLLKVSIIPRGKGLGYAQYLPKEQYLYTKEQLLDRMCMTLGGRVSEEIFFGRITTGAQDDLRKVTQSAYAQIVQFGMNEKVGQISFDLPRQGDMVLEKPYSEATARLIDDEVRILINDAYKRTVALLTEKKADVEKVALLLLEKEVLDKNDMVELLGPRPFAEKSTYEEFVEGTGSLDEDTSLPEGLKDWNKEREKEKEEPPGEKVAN
SPRYD4 (human), sequence (Q8WW59 whole entry): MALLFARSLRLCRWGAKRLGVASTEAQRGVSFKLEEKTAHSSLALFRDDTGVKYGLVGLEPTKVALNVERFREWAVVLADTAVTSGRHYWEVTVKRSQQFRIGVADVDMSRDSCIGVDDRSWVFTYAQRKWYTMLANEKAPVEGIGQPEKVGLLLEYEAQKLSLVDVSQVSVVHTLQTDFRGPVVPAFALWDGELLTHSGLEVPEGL

“FlagBirA-ClpP (Y118A) (from UniProt P06709 1-321; Q16740 57-277) (enzyme)” showed a Log2 Fold change (vs control) (AFG3L2 (human)) of 0.43 log2, a Log2 Fold change (vs control) (NUBPL (human)) of -2.58 log2 and a Log2 Fold change (vs control) (GATB (human)) of -3.1 log2. The Log2 Fold change (vs control) (MRPS25 (human)) was 0.62 log2, the Log2 Fold change (vs control) (MRPL46 (human)) was -0.28 log2 and the Log2 Fold change (vs control) (SPRYD4 (human)) was 0.22 log2. It also gave a Log2 Fold change (vs control) (COQ8A (human)) of -0.67 log2, a Log2 Fold change (vs control) (MPST (human)) of -1.29 log2 and a Log2 Fold change (vs control) (EFHA1 (human)) of -4.17 log2. For the same substance, the Log2 Fold change (vs control) (NMNAT3 (human)) was -4 log2, the Log2 Fold change (vs control) (XPNPEP3 (human)) was -0.31 log2 and the Log2 Fold change (vs control) (PMPCA (human)) was 0.15 log2. For the same substance, the Log2 Fold change (vs control) (SSBP1 (human)) was 0.89 log2, the Log2 Fold change (vs control) (ABCB7 (human)) was -0.65 log2 and the Log2 Fold change (vs control) (ARG2 (human)) was 0.78 log2. The Log2 Fold change (vs control) (RG9MTD1 (human)) was 0.47 log2, the Log2 Fold change (vs control) (ACAA2 (human)) was -0.92 log2 and the Log2 Fold change (vs control) (PDIA3 (human)) was -0.41 log2. For the same substance, the Log2 Fold change (vs control) (MRPL45 (human)) was -0.29 log2, the Log2 Fold change (vs control) (SDHA (human)) was 0.34 log2 and the Log2 Fold change (vs control) (GRPEL1 (human)) was 0 log2. For the same substance, the Log2 Fold change (vs control) (MMAB (human)) was 0.11 log2, the Log2 Fold change (vs control) (PTPMT1 (human)) was -0.04 log2 and the Log2 Fold change (vs control) (SUCLG1 (human)) was -0.28 log2. It also gave a Log2 Fold change (vs control) (HSDL2 (human)) of 0.83 log2, a Log2 Fold change (vs control) (C7orf55 (human)) of -0.74 log2 and a Log2 Fold change (vs control) (NDUFAF7 (human)) of 0.04 log2. For the same substance, the Log2 Fold change (vs control) (MRPL55 (human)) was -0.2 log2, the Log2 Fold change (vs control) (PNPT1 (human)) was -0.07 log2 and the Log2 Fold change (vs control) (NDUFS6 (human)) was -0.26 log2. It also gave a Log2 Fold change (vs control) (PITRM1 (human)) of -0.16 log2, a Log2 Fold change (vs control) (RTN4IP1 (human)) of -0.52 log2 and a Log2 Fold change (vs control) (GLUD1 (human)) of -0.39 log2. It also gave a Log2 Fold change (vs control) (ACADVL (human)) of 0.28 log2, a Log2 Fold change (vs control) (SLIRP (human)) of 0.25 log2 and a Log2 Fold change (vs control) (NDUFAF4 (human)) of 1.06 log2. The Log2 Fold change (vs control) (PYCR1 (human)) was 1.08 log2, the Log2 Fold change (vs control) (K1AA0564 (human)) was 0.29 log2 and the Log2 Fold change (vs control) (HARS2 (human)) was -0.49 log2. For the same substance, the Log2 Fold change (vs control) (SLC27A2 (human)) was -3.81 log2, the Log2 Fold change (vs control) (MRPS11 (human)) was -0.34 log2 and the Log2 Fold change (vs control) (NADKD1 (human)) was -1.04 log2. The Log2 Fold change (vs control) (FMC1 (human)) was 0.41 log2, the Log2 Fold change (vs control) (ALDH1L2 (human)) was -0.69 log2 and the Log2 Fold change (vs control) (CHCHD3 (human)) was -2.46 log2. It also gave a Log2 Fold change (vs control) (VARS2 (human)) of 0.76 log2, a Log2 Fold change (vs control) (TBRG4 (human)) of 0.28 log2 and a Log2 Fold change (vs control) (NDUFAF3 (human)) of 0.46 log2. For the same substance, the Log2 Fold change (vs control) (ACADM (human)) was -0.4 log2, the Log2 Fold change (vs control) (MRPS26 (human)) was -0.52 log2 and the Log2 Fold change (vs control) (MRPS7 (human)) was 0.71 log2. It also gave a Log2 Fold change (vs control) (COQ6 (human)) of 0.62 log2, a Log2 Fold change (vs control) (MDH2 (human)) of -0.03 log2 and a Log2 Fold change (vs control) (PDPR (human)) of 0.09 log2. It also gave a Log2 Fold change (vs control) (SDHAF3 (human)) of -0.03 log2, a Log2 Fold change (vs control) (NDUFA6 (human)) of 0.44 log2 and a Log2 Fold change (vs control) (CLIC4 (human)) of -2.81 log2. The Log2 Fold change (vs control) (GRSF1 (human)) was 1.91 log2.
